Test results from patent publication US20110172153A1 (GENERAL HOSPITAL, published 2011).
Values belong to the binder of their own block, whether it stands above or below them. Square brackets hold non-standard residues; d marks the D form. Ends that are not written are not given here. hArg = N=C(N)NCCCC[C@H](N)C(=O)O; Nle = CCCC[C@H](N)C(=O)O; Aib = CC(C)(N)C(=O)O

Assays:
[1] = molecular target: T1, human parathyroid hormone receptor (PTHR) (human, UniProt Q03431 27-593); test: competition radioligand binding, human PIR R0
T1 construct: Assayed in membranes of HKRK-B7 cells or of transiently transfected COS-7 cells, or on intact HKRK-B7/HKRK-B64/COS-7 cells; RG = co-transfected with negative-dominant Galpha-s; R0 = receptor alone plus GTPgammaS; also called hPTHR; human PTH receptor
T1 sequence: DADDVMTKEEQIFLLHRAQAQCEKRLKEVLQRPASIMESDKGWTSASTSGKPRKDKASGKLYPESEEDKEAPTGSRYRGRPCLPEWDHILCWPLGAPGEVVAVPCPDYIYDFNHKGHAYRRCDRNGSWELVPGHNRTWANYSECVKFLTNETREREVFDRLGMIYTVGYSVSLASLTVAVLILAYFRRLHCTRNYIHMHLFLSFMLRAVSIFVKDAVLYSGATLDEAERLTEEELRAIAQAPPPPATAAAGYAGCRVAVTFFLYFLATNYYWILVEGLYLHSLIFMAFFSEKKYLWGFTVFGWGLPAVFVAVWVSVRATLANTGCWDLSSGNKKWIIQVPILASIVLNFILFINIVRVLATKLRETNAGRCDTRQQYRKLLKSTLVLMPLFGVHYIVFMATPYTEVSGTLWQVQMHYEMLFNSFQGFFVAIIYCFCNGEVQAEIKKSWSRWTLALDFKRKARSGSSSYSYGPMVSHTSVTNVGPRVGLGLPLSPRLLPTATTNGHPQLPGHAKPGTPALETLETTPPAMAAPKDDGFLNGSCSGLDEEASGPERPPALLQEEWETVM
Experimental: (§1) Binding Studies. Binding studies were performed using cell membranes as described (Dean et al., Mol Endocrinol 20(4):931-43 (2006)). […] Reactions contained a total membrane protein concentration of 20 to 100 μg/mL, and a total radioactivity concentration of approximately 150,000 cpm/ml. Unlabeled peptide ligands and/or GTPγS (Sigma-Aldrich Inc. St. Louis, Mo.) were added to the reactions as indicated. At the end of the reaction, bound and free radioligand were separated by vacuum filtration using a 96-well vacuum filter plate and vacuum filter apparatus (Multi-Screen system with Durapore HV, […] filters; Millipore Corp., Milford, Mass.); the air-dried filters were then detached from the plate and counted for gamma radioactivity using a gamma counter.
(§2) To assess the capacities of various unlabeled peptide ligands to bind to the G protein-uncoupled and G protein-coupled PTHR conformations (R⁰ and RG, respectively), membranes were prepared from transiently transfected COS-7 cells and the following assay conditions.

[2] = molecular target: T1, human parathyroid hormone receptor …; test: competition radioligand binding, human PIR RG
Experimental: as §1, §2

[3] = molecular target: T1, human parathyroid hormone receptor …; test: competition radioligand binding, hPTHR R0 conformation
Experimental: as §1, §2

[4] = molecular target: T1, human parathyroid hormone receptor …; test: screen, binding to human PIR RG relative to parent PTHrP(1-28)NH; footnote not given
[5] = molecular target: T1, human parathyroid hormone receptor …; test: ratio of R0 IC50 to RG IC50, hPTHR
[6] = molecular target: T1, human parathyroid hormone receptor …; test: screen, binding to human PIR R0 relative to parent PTHrP(1-28)NH; footnote not given
[7] = molecular target: T1, human parathyroid hormone receptor …; test: competition radioligand binding, hPTHR RG conformation
Experimental: as §1, §2

[8] = molecular target: T1, human parathyroid hormone receptor …; test: competition vs 125I-[Aib1,3,M]PTH(1-15), COS-7 membranes hPTHR + GsND (RG)
Experimental: (§3) Radioligand dissociation. These studies were performed as bulk reactions in 15 mL round-bottom polystyrene snap-cap tubes (Falcon) (total reaction volume=5.0 ml). Membranes and radioligand were pre-incubated for 90 minutes to allow complex formation; the dissociation phase was then initiated by the addition of an excess of the unlabeled analog of the radioligand (5×10⁻⁷ M final concentration), with or without GTPγS (5×10⁻⁵ M). Immediately prior to this addition (t=0), and at successive time-points thereafter, 0.2 ml aliquots (30,000 cpm) were withdrawn and immediately processed by vacuum filtration, as described above. Non-specific binding was determined in parallel reaction tubes containing the unlabeled analog of the radioligand (5×10⁻⁷ M) in both the pre-incubation and dissociation phases. The specifically bound radioactivity at each time point was calculated as a percent of the radioactivity specifically bound at t=0. Equilibrium competition binding and GTPγS inhibition. […] Membranes, tracer radioligand, and various concentrations of unlabeled ligands and/or GTPγS were incubated in the wells for 90 minutes, following which, the reaction plates were processed by rapid vacuum filtration to separate bound from free radioligand, as described above. […] For both radioligands, the non-specific binding was determined in reactions containing a saturating concentration of the unlabeled analog of the radioligand. The specifically bound radioactivity was calculated as a percent of the radioactivity specifically bound in the absence of a competing ligand or GTPγS.

[9] = molecular target: T1, human parathyroid hormone receptor …; test: ratio of R0 IC50 to RG IC50, hPTHR; remark: listed apart in the source
[10] = molecular target: T1, human parathyroid hormone receptor …; test: competition vs 125I-PTH(1-34) + GTPgammaS, COS-7 membranes hPTHR (R0)
Experimental: as §3

[11] = molecular target: T1, human parathyroid hormone receptor …; test: competition radioligand binding, human PTH1 receptor RG
Experimental: as §1, §2

[12] = molecular target: T1, human parathyroid hormone receptor …; test: competition radioligand binding, human PTH1 receptor R0
Experimental: as §1, §2

[13] = molecular target: T1, human parathyroid hormone receptor …; test: ratio of R0 IC50 to RG IC50, human PTH1 receptor
[14] = molecular target: T2, rat parathyroid hormone receptor (PTHR) (rat, UniProt P25961 27-591); test: cell-based or functional assay
T2 sequence: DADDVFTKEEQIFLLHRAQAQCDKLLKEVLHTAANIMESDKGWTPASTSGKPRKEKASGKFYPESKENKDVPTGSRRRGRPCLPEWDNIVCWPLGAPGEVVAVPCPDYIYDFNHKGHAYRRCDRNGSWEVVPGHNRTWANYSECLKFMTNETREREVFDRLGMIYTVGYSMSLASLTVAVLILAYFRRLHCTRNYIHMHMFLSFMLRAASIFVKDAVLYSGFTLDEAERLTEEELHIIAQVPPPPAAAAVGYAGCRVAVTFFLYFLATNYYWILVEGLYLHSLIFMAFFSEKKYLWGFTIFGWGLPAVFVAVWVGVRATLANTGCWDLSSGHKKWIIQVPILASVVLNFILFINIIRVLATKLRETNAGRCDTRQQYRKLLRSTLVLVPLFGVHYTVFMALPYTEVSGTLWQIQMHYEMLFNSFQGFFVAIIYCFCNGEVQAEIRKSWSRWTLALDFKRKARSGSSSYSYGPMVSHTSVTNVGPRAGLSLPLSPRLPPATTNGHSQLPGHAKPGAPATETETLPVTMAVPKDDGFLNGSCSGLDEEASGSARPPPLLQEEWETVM

[15] = molecular target: T1, human parathyroid hormone receptor …; test: cell-based or functional assay
[16] = molecular target: T1, human parathyroid hormone receptor …; test: cell-based or functional assay; remark: listed apart in the source
[17] = molecular target: T1, human parathyroid hormone receptor …; test: cell-based or functional assay; remark: listed apart in the source

Binder: AVSEHQLLHDKGKSIQDARRRAFLHKLI-NH2 [A18,22,K26-PTHrP(1-28)NH]
- IC50 [1]: 1820 nM
- IC50 [2]: 0.1 nM
- IC50 [3]: 1820 nM
- human PIR RG (% parent) [4]: 193 % parent
- R0/RG selectivity [5]: 18100
- human PIR R0 (% parent) [6]: 178 % parent
- IC50 [7]: 0.1 nM

Binder: AVSEHQLLHDKGKSIQDERRRAFLHKLI-NH2 [E18,A22,K26-PTHrP(1-28)NH]
- IC50 [1]: 9240 nM
- IC50 [2]: 0.24 nM
- IC50 [3]: 9240 nM
- human PIR RG (% parent) [4]: 145 % parent
- R0/RG selectivity [5]: 38300
- human PIR R0 (% parent) [6]: 68.8 % parent
- IC50 [7]: 0.24 nM

B1: [Aib^1,3,Nle^8,Gln^10,homoarginine^11,Ala^12,Trp^14,Tyr^15]rPTH(1-15)NH2 (peptide)
peptide: [Aib]V[Aib]EIQL[Nle]HQ[hArg]AKWY-NH2
modifications: N-terminus assumed
SMILES: CCCC[C@H](NC(=O)[C@H](CC(C)C)NC(=O)[C@H](CCC(N)=O)NC(=O)[C@@H](NC(=O)[C@H](CCC(=O)O)NC(=O)C(C)(C)NC(=O)[C@@H](NC(=O)C(C)(C)N)C(C)C)[C@@H](C)CC)C(=O)N[C@@H](Cc1c[nH]cn1)C(=O)N[C@@H](CCC(N)=O)C(=O)N[C@@H](CCCCNC(=N)N)C(=O)N[C@@H](C)C(=O)N[C@@H](CCCCN)C(=O)N[C@@H](Cc1c[nH]c2ccccc12)C(=O)N[C@@H](Cc1ccc(O)cc1)C(N)=O
notes: also called [Aib^1,3,M]rPTH(1-15)NH2; [Aib^1,3,M]PTH(1-15)
- IC50 [8]: 0.74 nM
- R0:RG [9]: 1400
- IC50 [10]: 1030 nM

Binder: AVAEIQLMHQRAKWLNSMRAVEWLRKKLQDVHNF-OH (Mc = A1,3,12,Q10,R11,W14,R19) [A20,Mc-PTH(1-34)OH]
- IC50 [11]: 0.4 nM
- IC50 [12]: 31.9 nM
- R0/RG ratio [13]: 80

Binder: AVAEIQLMHQRAKWLNSMRRVEFLRKKLQDVHNF-OH (Mc = A1,3,12,Q10,R11,W14,R19) [F23,Mc-PTH(1-34)OH]
- IC50 [11]: 0.23 nM
- IC50 [12]: 1.2 nM
- R0/RG ratio [13]: 5

B2: rPTH(1-34)NH2 (peptide)
peptide: AVSEIQLMHNLGKHLASVERMQWLRKKLQDVHNF-NH2
notes: also called r(rat)PTH(1-34)NH2; rat-PTH(1-34)
- IC50 [8]: 0.34 nM
- R0:RG [9]: 7
- IC50 [10]: 2.3 nM
- cAMP in ROS17/2.8 cells, EC50 [14]: 0.021 nM

B3: [A1,3,23]-PTH(1-34)OH (peptide)
peptide: AVAEIQLMHNLGKHLNSMERVEALRKKLQDVHNF-OH
notes: also called [A^1,A^3,A^23]-PTH(1-34)OH; [A1,3,23]-hPTH(1-34)
- cAMP in HKRK-B7 cells, EC50 [15]: 1.93 nM
- cAMP in HKRK-B7 cells, Max [15]: 66.6 pm/well
- IC50 [11]: 0.43 nM
- IC50 [12]: 1840 nM
- R0/RG ratio [13]: 4290

Next, values leading:

- IC50 [8]: 0.19 nM
- R0:RG [9]: 138
- IC50 [10]: 26 nM
Binder: AVSEHQLMHNLGKHLASVERMQWLRKKLQDVHNF-NH2 [[His^5]rPTH(1-34)NH2]

- IC50 [8]: 0.76 nM
- R0:RG [9]: 160
- IC50 [10]: 122 nM
- delayed cAMP response 60 minutes after wash-out, % of maximum, HKRK-B64 cells [16]: 34%
Binder: SVSEHQLMHNLGKHLNSMERVEWLRKKLQDVHNF-NH2 [[His^5]hPTH(1-34)NH2]

- IC50 [8]: 0.094 nM
- R0:RG [9]: 753
- IC50 [10]: 71 nM
- IP in COS-7/hPTHR cells, EC50 [17]: 30 nM
- IP in COS-7/hPTHR cells, Emax [17]: 2230 cpm/well
- cAMP in HKRK-B64 cells, EC50 [17]: 2.7 nM
- cAMP in HKRK-B64 cells, Emax [17]: 59 picomole/well
B4: [His^5,Nle^8,21,Tyr^34]rPTH(1-34)NH2 (peptide)
peptide: AVSEHQL[Nle]HNLGKHLASVER[Nle]QWLRKKLQDVHNY-NH2
modifications: N-terminus assumed
SMILES: CCCC[C@H](NC(=O)[C@H](CC(C)C)NC(=O)[C@H](CCC(N)=O)NC(=O)[C@H](Cc1c[nH]cn1)NC(=O)[C@H](CCC(=O)O)NC(=O)[C@H](CO)NC(=O)[C@@H](NC(=O)[C@H](C)N)C(C)C)C(=O)N[C@@H](Cc1c[nH]cn1)C(=O)N[C@@H](CC(N)=O)C(=O)N[C@@H](CC(C)C)C(=O)NCC(=O)N[C@@H](CCCCN)C(=O)N[C@@H](Cc1c[nH]cn1)C(=O)N[C@@H](CC(C)C)C(=O)N[C@@H](C)C(=O)N[C@@H](CO)C(=O)N[C@H](C(=O)N[C@@H](CCC(=O)O)C(=O)N[C@@H](CCCNC(=N)N)C(=O)N[C@@H](CCCC)C(=O)N[C@@H](CCC(N)=O)C(=O)N[C@@H](Cc1c[nH]c2ccccc12)C(=O)N[C@@H](CC(C)C)C(=O)N[C@@H](CCCNC(=N)N)C(=O)N[C@@H](CCCCN)C(=O)N[C@@H](CCCCN)C(=O)N[C@@H](CC(C)C)C(=O)N[C@@H](CCC(N)=O)C(=O)N[C@@H](CC(=O)O)C(=O)N[C@H](C(=O)N[C@@H](Cc1c[nH]cn1)C(=O)N[C@@H](CC(N)=O)C(=O)N[C@@H](Cc1ccc(O)cc1)C(N)=O)C(C)C)C(C)C
notes: also called His^5-PTH(1-34); H^5-PTH(1-34)

- R0:RG [9]: 5
- delayed cAMP response 60 minutes after wash-out, % of maximum, HKRK-B64 cells [16]: 47%
- t1/2 of decay of the cAMP signaling response, HKRK-B7 cells [16]: ~2 h
- IP in COS-7/hPTHR cells, EC50 [17]: 18 nM
- IP in COS-7/hPTHR cells, Emax [17]: 2410 cpm/well
- cAMP in HKRK-B64 cells, EC50 [17]: 5.1 nM
- cAMP in HKRK-B64 cells, Emax [17]: 55 picomole/well
B5: [Nle^8,21,Tyr^34]rPTH(1-34)NH2 (peptide)
peptide: AVSEIQLXHNLGKHLASVERXQWLRKKLQDVHNY
modifications: Nle at 8 and 21; C-terminal amide
notes: also called [Nle^8,21,Tyr^34]rat(r)PTH(1-34)NH2; control PTH(1-34) analog
